Measured values as given in article PMC9882231 (bioRxiv, 2023).
Several values for one entry are separate records, joined by “and”; a condition that tells them apart may be missing. Equal values may be shown once.

B1: Ndl1^CC (Ndl1 coiled-coil domain, residues 2-132) (domain or fragment)
chain: VPNLDLETAIQIISSLETQLSELEGATKEYENDLEQVISKLKSDLLESQQQNKCNKKQITDLEIQVDELENENIQLRNKIETLQLESDRRLERNVLLEHELLDTKEALQKLRVSKEEATSGETRRNTRSLP
B2: Ndel1^CC (human Ndel1 coiled-coil domain, residues 1-195), as used in Figure 4 (domain or fragment)
chain: MDGEDIPDFSSLKEETAYWKELSLKYKQSFQEARDELVEFQEGSRELEAELEAQLVQAEQRNRDLQADNQRLKYEVEALKEKLEHQYAQSYKQVSVLEDDLSQTRAIKEQLHKYVRELEQANDDLERAKRATIVSLEDFEQRLNQAIERNAFLESELDEKESLLVSVQRLKDEARDLRQELAVRERQQEVTRKSA

Key:
[1] = target: yeast dynein complex, wild-type (WT) (S. cerevisiae, UniProt P36022;P40960;Q04949;Q02647, HaloTag or SNAP ligand dye on the tag); assay: TIRF microscopy microtubule recruitment assay
[2] = target: yeast dynein^ΔICN complex (S. cerevisiae, UniProt P36022;P40960;Q04949;Q02647, HaloTag or SNAP ligand dye on the tag); assay: TIRF microscopy microtubule recruitment assay
[3] = target: B1; assay: mass photometry
mass photometry = target: the molecule itself; assay: mass photometry
[4] = target: B2; assay: mass photometry

Chain of yeast dynein complex, wild-type (WT) (P36022 whole entry, chain 1 of 4): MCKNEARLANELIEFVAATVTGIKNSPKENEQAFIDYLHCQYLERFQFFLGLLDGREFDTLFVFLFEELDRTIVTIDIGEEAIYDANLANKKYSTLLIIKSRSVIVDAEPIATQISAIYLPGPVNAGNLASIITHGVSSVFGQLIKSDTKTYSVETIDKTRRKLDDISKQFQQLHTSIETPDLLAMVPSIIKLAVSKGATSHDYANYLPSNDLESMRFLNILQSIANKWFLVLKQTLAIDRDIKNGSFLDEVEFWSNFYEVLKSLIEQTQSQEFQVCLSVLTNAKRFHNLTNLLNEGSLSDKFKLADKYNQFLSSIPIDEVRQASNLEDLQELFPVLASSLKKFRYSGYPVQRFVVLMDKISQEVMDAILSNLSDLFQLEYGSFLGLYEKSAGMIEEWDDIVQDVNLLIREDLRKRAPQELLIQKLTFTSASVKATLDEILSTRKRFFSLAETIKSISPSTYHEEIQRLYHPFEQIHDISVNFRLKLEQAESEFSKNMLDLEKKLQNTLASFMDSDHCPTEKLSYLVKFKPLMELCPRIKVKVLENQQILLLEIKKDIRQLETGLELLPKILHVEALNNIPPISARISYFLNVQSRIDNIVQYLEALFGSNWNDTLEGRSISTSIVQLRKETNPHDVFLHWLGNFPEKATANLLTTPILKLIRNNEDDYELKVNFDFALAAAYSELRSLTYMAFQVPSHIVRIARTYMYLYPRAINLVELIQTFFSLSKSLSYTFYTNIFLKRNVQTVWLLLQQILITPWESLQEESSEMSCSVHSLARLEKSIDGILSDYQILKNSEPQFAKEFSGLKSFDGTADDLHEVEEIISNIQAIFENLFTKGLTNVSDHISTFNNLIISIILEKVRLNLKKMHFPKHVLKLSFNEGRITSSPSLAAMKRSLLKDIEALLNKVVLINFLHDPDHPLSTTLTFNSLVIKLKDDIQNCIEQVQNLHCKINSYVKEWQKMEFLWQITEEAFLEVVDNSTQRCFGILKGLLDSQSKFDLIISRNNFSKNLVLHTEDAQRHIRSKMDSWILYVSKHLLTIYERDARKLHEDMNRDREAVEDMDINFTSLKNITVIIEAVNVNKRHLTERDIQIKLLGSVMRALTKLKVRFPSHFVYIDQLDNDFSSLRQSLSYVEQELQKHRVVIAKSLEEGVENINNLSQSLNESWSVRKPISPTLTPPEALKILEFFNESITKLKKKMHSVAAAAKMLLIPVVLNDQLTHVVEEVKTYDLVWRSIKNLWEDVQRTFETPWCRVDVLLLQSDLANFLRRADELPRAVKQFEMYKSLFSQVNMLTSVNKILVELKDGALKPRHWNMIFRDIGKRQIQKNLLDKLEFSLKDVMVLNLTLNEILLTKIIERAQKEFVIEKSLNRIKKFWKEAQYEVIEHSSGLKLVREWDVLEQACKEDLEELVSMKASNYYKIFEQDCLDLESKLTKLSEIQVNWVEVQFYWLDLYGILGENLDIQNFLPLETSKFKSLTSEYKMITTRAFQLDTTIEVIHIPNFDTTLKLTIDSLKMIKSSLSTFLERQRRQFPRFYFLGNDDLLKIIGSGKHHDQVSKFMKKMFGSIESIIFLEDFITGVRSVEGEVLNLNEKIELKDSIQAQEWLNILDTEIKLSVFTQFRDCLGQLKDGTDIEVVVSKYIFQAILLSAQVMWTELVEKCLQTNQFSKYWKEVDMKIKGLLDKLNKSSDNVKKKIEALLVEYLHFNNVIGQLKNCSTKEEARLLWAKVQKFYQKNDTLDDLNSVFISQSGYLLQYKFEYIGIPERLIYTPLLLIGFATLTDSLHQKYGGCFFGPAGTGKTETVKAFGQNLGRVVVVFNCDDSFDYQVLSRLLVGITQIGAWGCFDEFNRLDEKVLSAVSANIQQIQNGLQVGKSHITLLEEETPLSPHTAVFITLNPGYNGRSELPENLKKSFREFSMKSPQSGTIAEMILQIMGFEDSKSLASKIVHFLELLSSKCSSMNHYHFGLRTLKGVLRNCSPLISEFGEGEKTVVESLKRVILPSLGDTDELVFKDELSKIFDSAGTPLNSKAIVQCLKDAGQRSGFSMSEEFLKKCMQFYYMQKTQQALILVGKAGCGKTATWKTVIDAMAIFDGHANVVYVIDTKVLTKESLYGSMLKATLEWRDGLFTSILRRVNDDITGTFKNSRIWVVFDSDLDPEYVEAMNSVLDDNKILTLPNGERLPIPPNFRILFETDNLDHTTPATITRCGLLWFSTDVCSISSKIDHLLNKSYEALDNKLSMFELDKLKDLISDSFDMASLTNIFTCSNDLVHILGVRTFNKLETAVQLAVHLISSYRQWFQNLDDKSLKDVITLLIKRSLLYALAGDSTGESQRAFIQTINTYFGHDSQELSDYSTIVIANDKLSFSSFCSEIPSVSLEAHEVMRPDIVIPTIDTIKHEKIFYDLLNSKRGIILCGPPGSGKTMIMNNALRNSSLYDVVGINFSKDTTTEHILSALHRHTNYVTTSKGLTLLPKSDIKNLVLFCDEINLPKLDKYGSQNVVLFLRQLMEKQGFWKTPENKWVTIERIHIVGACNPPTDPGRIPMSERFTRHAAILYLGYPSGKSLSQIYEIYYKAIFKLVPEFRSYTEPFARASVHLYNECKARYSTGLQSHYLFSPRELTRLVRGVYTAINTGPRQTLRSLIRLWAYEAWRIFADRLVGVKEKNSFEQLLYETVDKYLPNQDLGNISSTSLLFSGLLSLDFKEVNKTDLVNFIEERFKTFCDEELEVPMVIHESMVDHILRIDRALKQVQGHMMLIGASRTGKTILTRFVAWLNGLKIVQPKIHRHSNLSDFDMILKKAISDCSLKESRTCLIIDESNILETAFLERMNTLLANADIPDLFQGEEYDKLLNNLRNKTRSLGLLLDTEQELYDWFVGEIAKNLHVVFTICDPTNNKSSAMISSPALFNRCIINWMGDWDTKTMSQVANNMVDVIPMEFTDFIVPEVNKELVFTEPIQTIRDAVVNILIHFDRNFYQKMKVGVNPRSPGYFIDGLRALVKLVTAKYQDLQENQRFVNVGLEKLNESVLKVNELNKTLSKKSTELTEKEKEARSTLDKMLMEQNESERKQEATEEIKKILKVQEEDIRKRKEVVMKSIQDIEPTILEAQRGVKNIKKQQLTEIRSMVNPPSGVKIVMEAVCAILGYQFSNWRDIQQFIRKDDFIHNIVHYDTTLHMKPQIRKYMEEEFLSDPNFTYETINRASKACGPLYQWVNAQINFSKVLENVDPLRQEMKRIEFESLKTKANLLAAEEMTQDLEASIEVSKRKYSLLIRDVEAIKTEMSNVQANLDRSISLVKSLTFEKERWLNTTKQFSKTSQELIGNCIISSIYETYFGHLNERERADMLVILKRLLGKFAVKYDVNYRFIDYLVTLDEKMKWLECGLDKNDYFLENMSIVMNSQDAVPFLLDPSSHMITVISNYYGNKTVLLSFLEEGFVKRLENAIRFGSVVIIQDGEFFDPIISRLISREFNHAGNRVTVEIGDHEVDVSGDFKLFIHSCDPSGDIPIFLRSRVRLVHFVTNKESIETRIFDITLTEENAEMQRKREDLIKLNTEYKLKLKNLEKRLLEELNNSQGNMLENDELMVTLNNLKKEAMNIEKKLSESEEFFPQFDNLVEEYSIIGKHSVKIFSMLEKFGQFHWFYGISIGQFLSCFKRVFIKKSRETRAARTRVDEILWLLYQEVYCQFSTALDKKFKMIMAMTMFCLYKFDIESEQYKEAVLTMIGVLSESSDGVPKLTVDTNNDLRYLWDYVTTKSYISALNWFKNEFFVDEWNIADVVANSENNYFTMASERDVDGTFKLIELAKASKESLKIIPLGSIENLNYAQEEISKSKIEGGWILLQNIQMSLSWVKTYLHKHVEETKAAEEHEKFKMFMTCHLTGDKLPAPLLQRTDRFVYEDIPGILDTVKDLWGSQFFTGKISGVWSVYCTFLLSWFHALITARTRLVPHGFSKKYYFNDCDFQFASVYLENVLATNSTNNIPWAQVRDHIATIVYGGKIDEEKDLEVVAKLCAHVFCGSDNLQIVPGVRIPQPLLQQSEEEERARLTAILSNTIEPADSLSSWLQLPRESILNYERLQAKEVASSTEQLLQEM
Chain of yeast dynein complex, wild-type (WT) (P40960 whole entry, chain 2 of 4): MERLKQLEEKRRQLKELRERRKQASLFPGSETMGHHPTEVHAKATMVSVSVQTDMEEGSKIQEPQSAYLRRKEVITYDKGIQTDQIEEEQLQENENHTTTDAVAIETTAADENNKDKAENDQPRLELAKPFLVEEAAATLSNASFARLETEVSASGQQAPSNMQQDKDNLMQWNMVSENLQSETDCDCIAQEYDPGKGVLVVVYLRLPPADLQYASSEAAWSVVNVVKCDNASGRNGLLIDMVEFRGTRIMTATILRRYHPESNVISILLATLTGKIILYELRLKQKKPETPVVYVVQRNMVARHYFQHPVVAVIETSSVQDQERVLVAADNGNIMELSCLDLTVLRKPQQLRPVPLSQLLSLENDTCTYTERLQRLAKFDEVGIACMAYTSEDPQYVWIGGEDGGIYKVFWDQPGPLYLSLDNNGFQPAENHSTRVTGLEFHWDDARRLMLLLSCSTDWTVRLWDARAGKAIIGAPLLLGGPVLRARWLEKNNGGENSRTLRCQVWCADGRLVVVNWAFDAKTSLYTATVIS
Chain of yeast dynein complex, wild-type (WT) (Q04949 whole entry, chain 3 of 4): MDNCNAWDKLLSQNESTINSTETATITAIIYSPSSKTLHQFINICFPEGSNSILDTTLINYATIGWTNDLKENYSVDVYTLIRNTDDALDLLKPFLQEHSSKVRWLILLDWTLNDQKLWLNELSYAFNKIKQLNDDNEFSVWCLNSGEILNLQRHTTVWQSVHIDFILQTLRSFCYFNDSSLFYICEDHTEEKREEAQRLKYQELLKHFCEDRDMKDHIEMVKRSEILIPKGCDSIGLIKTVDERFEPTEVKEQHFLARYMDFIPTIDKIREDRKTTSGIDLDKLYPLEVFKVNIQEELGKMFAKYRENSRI
Chain of yeast dynein complex, wild-type (WT) (Q02647 whole entry, chain 4 of 4): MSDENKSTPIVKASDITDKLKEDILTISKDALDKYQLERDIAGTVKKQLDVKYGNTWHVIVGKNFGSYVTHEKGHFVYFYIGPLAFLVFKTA

Row | Binder | binding result [1] | stoichiometry N (mass photometry) | further results
1 | Nip100^CC1 (Nip100 coiled-coil, residues 97-377) with eGFP (domain or fragment) EHSLLNGNAAQETIKNLQVKCESLASKLNKIKIENHELKTSVEKLSTNETVLLSKISRLDKLVKELKVENGNMKTHLDNFNHLLDASDSVMAPDLDKGTLLERSHLLQGLLDQTKLSYDKAMKVQEDLLEENTQLLEENAVLSKKISDLGLQLQQTNNTIGDLALQIEAQSKSSNIVDKLTNDNILLTSNIKALNNELEELQAKEKLDENLRITYEQLEQELRLQLSNLQSALENEKEIAGTYIEENSRLKATLESIEAKTSHKFQSLELKVNTLQEELYQ | binds | – | –
2 | Ndl1, full-length, with C-terminal FLAG-SNAPf (natural protein, JFX554 or JFX650 SNAP-tag ligand on the SNAPf tag) MVPNLDLETAIQIISSLETQLSELEGATKEYENDLEQVISKLKSDLLESQQQNKCNKKQITDLEIQVDELENENIQLRNKIETLQLESDRRLERNVLLEHELLDTKEALQKLRVSKEEATSGETRRNTRSLPSQNKKMKLFKDTIKVSTTSSTLYLQNMAKTNNAARSHCNIPNTQITQSTVIATTSSV | binds | – | –
3 | Pac1, full-length, with C-terminal FLAG-SNAPf (natural protein, SNAP-tag ligand dye on the SNAPf tag where labelled) MTNWQQQLPLTDTQKNELDKSVLRYLNWNYKQTVRHEHAQDYESVRHAIVTLSGFLLQESVDRQEFISNNDTSNESMVDIDELLLPKKWNSIVRLQKKIIELEQNTETLVSQIKDLNTQVSELAQFKPTTSNGTSAHNVLKWIPRNLPSCLINVESSVTSVKLHPNLPIVFVATDHGKLYAFDLFNYTIPLASLQSHTKAITSMDVLFTNYTNSSKKNYLVIVTASKDLQIHVFKWVSEECKFQQIRSLLGHEHIVSAVKIWQKNNDVHIASCSRDQTVKIWDFHNGWSLKTFQPHSQWVRSIDVLGDYIISGSHDTTLRLTHWPSGNGLSVGTGHEFPIEKVKFIHFIEDSPEIRFRTPSTDRYKNWGMQYCVSASRDRTIKIWEIPLPTLMAHRAPIPNPTDSNFRCVLTLKGHLSWVRDISIRGQYLFSCADDKSVRCWDLNTGQCLHVWEKLHTGFVNCLDLDVDFDSNVTPRQMMVTGGLDCKSNVFMR | binds | 2 | binding result [2]: binds; stoichiometry N [3]: 1 and 2 Pac1:Ndl1
4 | B1 | binds | 2 | –
5 | LIS1, wild-type (natural protein) MVLSQRQRDELNRAIADYLRSNGYEEAYSVFKKEAELDVNEELDKKYAGLLEKKWTSVIRLQKKVMELESKLNEAKEEFTSGGPLGQKRDPKEWIPRPPEKYALSGHRSPVTRVIFHPVFSVMVSASEDATIKVWDYETGDFERTLKGHTDSVQDISFDHSGKLLASCSADMTIKLWDFQGFECIRTMHGHDHNVSSVAIMPNGDHIVSASRDKTIKMWEVQTGYCVKTFTGHREWVRMVRPNQDGTLIASCSNDQTVRVWVVATKECKAELREHEHVVECISWAPESSYSSISEATGSETKKSGKPGPFLLSGSRDKTIKMWDVSTGMCLMTLVGHDNWVRGVLFHSGGKFILSCADDKTLRVWDYKNKRCMKTLNAHEHFVTSLDFHKTAPYVVTGSVDQTVKVWECR | – | – | stoichiometry N [4]: 1
6 | B2 | – | 2 | –
